Values of other authors, collected in article PMC8471248.

Target: cell-surface GRP78 (Homo sapiens) (UniProt P11021)
UniProt P11021, sequence (P11021 19-654): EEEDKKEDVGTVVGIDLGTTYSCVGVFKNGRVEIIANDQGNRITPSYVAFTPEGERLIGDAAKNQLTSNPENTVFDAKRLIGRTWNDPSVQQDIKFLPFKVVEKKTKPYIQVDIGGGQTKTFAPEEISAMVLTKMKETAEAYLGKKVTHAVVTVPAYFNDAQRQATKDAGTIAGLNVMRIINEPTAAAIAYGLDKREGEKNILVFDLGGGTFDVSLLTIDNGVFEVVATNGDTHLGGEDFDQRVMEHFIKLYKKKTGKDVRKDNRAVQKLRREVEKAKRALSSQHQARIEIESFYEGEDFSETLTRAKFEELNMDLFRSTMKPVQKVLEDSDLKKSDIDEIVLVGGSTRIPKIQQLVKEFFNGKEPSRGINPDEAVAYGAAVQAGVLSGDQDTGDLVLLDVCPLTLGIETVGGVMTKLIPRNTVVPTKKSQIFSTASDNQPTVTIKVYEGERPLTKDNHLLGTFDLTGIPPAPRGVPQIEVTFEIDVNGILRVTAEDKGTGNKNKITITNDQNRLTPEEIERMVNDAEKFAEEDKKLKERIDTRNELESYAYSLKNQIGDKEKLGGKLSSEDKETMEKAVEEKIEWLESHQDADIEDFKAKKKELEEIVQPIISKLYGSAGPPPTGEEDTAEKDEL

Kd: 100 pM
Substance: Activated alpha 2-macroglobulin (from UniProt P01023)
